B2: human ZNRF3 (residues 56-267, ECD-TMD) (domain or fragment, UniProt Q9ULT6 56-267, looked up)
chain: KETAFVEVVLFESSPSGDYTTYTTGLTGRFSRAGATLSAEGEIVQMHPLGLCNNNDEEDLYEYGWVGVVKLEQPELDPKPCLTVLGKAKRAVQRGATAVIFDVSENPEAIDQLNQGSEDPLKRPVVYVKGADAIKLMNIVNKQKVARARIQHRPPRQPTEYFDMGIFLAFFVVVSLVCLILLVKIKLKQRRSQNSMNRLAVQALEKMETRKF
notes: human ZNRF3, residues 56-267 (ECD-TMD), UniProt Q9ULT6; Cloned with the rabbit immunoglobulin heavy chain V signal peptide at the N-terminus in place of its own; no tag is named for this construct; also called Zinc and Ring Finger 3

How the values were obtained:
[1] = target: human ZNRF3 (residues 56-267, ECD-TMD) (human) (UniProt Q9ULT6)
[2] = target: B2; assay: cryo-EM structure; LGR4, RSPO2 and ZNRF3 co-expressed in Expi293F, complex solubilised in LMNG/CHS and purified by anti-DYKDDDDK resin (FLAG on LGR4) and SEC in 0.01% GDN; two complexes in one sample, 1:1:2 (3.2 Å) and 2:2:2 (3.5 Å); conditions: both partners purified
[3] = target: T1, human LGR4 (residues 1-822), ECD and TMD, expressed in ExpiSf9 cells (human, UniProt Q9BXB1 25-822); assay: cryo-EM structure; individually purified LGR4 and RSPO2 mixed at a 1:2 ratio for 3 hours at 4 °C, complex isolated by SEC (25 mM HEPES-NaOH pH 7.5, 0.15 M NaCl, 0.01% GDN); overall resolution 4.0 Å; conditions: both partners purified
T1 construct: signal peptide in the construct; human LGR4, residues 1-822 (ECD and TMD, without the ICD), UniProt Q9BXB1; no cleavage is described; also called Leucine-rich repeat-containing G protein-coupled receptor 4; apo LGR4; source: ExpiSf9 (baculovirus), membrane fraction solubilised in LMNG/CHS, purified (Ni-NTA, SEC)

[4] = target: T2, human LGR4 (residues 1-822), ECD and TMD, expressed in Expi293F cells (human, UniProt Q9BXB1 25-822); assay: cryo-EM structure; LGR4, RSPO2 and ZNRF3 co-expressed in Expi293F, complex solubilised in LMNG/CHS and purified by anti-DYKDDDDK resin (FLAG on LGR4) and SEC in 0.01% GDN; two complexes in one sample, 1:1:2 (3.2 Å) and 2:2:2 (3.5 Å); conditions: both partners purified
T2 construct: signal peptide in the construct; human LGR4, residues 1-822 (ECD and TMD), UniProt Q9BXB1; no cleavage is described. pEZT-BM vector; not shown: FLAG, C-terminal, kept

[5] = target: the molecule itself; assay: as above

“full-length human LGR4 (CD4 TMD): TMD (7-TM, aa526-822) replaced with that of CD4 (1-TM) (from UniProt Q9BXB1 25-525; Q9BXB1 823-951) (receptor)” was tested, and the RSPO2-induced TOPFlash Wnt/β-catenin reporter activity in HEK293T cells (siRNA against LGR4 and LGR5; 5% Wnt3a-conditioned medium, 3 ng/mL RSPO2), against wild-type LGR4 [1] was 50 % reduction.

B1: human RSPO2 (residues 20-143, Fu1-2 domains) (ligand, UniProt Q6UXX9 20-143, looked up)
chain: HCQGNRWRRSKRASYVSNPICKGCLSCSKDNGCSRCQQKLFFFLRREGMRQYGECLHSCPSGYYGHRAPDMNRCARCRIENCDSCFSKDFCTKCKVGFYLHRGRCFDECPDGFAPLEETMECVE
notes: human RSPO2, Fu1-2 domains, UniProt Q6UXX9; no cleavage is described; Codon-optimised synthetic DNA in pEZT-BM; also called R-spondin 2; source: Expi293F, secreted into the medium, purified (Ni-NTA, SEC); also co-transfected in Expi293F with LGR4 and ZNRF3 and co-purified with them
With B1 the binding result [2] was “binds” and the “stoichiometry N” value [3] was 1.

With B2 the binding result [4] was “binds” and the “stoichiometry N” value [5] was 2.

Source: paper PMC12488874, “Structural insights into Wnt/β-catenin signaling regulation by LGR4, R-spondin, and ZNRF3” (Nature Communications, 2025)
